Tests used:
[1] = test system: CAFs; experiment: Cytokine secretion by CAFs treated with sNG1 or NetG1 peptides (ELISA); type: cell-based; conditions: CAFs treated 7 days, media conditioned 2 days, vs CON
Experimental: 1.6×10^5 Control (CON) or NetrinG1 Ligand knockdown (NGL1 KD) CAFs were plated into 24 well plates and allowed to produce matrices in the presence of 50 μg/mL of ascorbic acid and were either untreated or treated with either soluble NetrinG1 (sNG1), NetG1 peptide corresponding to a domain known to engage with NGL1 (NPYMSNNE; SEQ ID NO:26; (FITC)—Ba-Asn-Pro-Tyr-Met-Ser-Asn-Asn-Glu-(NH2)), hypothesized to modestly prevent NetG1/NGL1 interaction (peptide), or a modified NetG1 peptide (NPTMSNNE; SEQ ID NO:27; (FITC)—Ba-Asn-Pro-Thr-Met-Ser-Asn-Asn-Glu-(NH2)) suspected to strongly prevent NetG1/NGL1 engagement (mutant), for 7 days. […] The media was then replaced with serum- and glutamine-free media and CAFs were allowed to condition the media for 2 days. Conditioned media was collected from each well and subjected to ELISA for the measurement of cytokine (TGF-β, IL-6, and IL-8) secretion. […] 01, *** p<. 001, **** p<. 0001. N=3-6.

[2] = test system: CAF EVs; experiment: Clustering of CAF-secreted EVs treated after collection; conditions: CAF EVs incubated with the agent following their collection
[3] = test system: CAFs; experiment: CAF blebbing under 3D conditions; type: cell-based, human
Text: The phenotype is believed to indicate fibroblastic function after NGL1 engagement from other cells (like tumor cells). Similar effects were observed when cancer cells were co-cultured with CAFs using CAF-derived matrices as culturing scaffolds.

[4] = test system: CAFs; experiment: EV production by CAFs treated with recombinant NGL1; type: cell-based
[5] = test system: virus infected neurons plated onto a CAF culture bed; experiment: Heterotypic neuron-CAF functional synapse formation (virus spread into CAFs); type: cell-based; conditions: FIG. 3B/3D
Experimental: (§1) Viral transmission was used as a test to investigate the formation of functional synapses. […] The same experiment, as in Panel A, was conducted, except that virus (red) infected neurons (green) were plated onto a CAF culture bed (evident in transmitted microscopy images shown in bottom panels) to assess heterotypic neuron-CAF functional synapse formation (evidence by red virus spread into CAFs) while untreated (left) or treated with recombinant NGL1 (middle) or NetG1 (right) (Panel B).

[6] = test system: virus infected neurons; experiment: Synapse-dependent viral transmission between neurons; type: cell-based; conditions: neurons only, FIG. 3A/3C
Experimental: as §1

[7] = test system: PDAC cancer cells; experiment: Rescue of starvation-induced death of PDAC cancer cells by CAF-produced EVs; type: cell-based
Text: PDAC cells die in the absence of nutrition but can be rescued using EVs secreted by intact CAFs. If CAFs are deficient in NetG1 expression, the resultant EVs fail to rescue PDAC cells from starvation. […] The pharmaceutical agents set forth herein will prevent the NetG1/NGL1 engagement and, thus, serve as therapeutics that will assure PDAC cells will not survive under nutritional stress as in vivo.

[8] = test system: T cells from murine spleens; experiment: T cell activation with CD3/CD28; type: cell-based; conditions: recombinant NetG1 present during activation

In the case of “NPTMSNNE (NetG1 polypeptide) [SEQ ID NO:27]”, the “secreted IL-6” value [1] is reported as “significant decreases”, the “secreted IL-8” value [1] is reported as “significant decreases” and the “secreted TGF-β” value [1] is reported as “significant decreases”.

“NPYMSNNE (NetG1 polypeptide) [SEQ ID NO:26, NetG1 peptide corresponding to a domain known to engage with NGL1]” was tested, and the “secreted IL-6” value [1] was “significant decreases”, the “secreted IL-8” value [1] was “significant decreases” and the “secreted TGF-β” value [1] was “significant decreases”.

B1: recombinant NGL1: recombinant Netrin G1 ligand (NGL1) protein added to EVs or cell cultures (protein)
chain: QTCPSVCSCSNQFSKVICVRKNLREVPDGISTNTRLLNLHENQIQIIKVNSFKHLRHLEILQLSRNHIRTIEIGAFNGLANLNTLELFDNRLTTIPNGAFVYLSKLKELWLRNNPIESIPSYAFNRIPSLRRLDLGELKRLSYISEGAFEGLSNLRYLNLAMCNLREIPNLTPLIKLDELDLSGNHLSAIRPGSFQGLMHLQKLWMIQSQIQVIERNAFDNLQSLVEINLAHNNLTLLPHDLFTPLHHLERIHLHHNPWNCNCDILWLSWWIKDMAPSNTACCARCNTPPNLKGRYIGELDQNYFTCYAPVIVEPPADLNVTEGMAAELKCRASTSLTSVSWITPNGTVMTHGAYKVRIAVLSDGTLNFTNVTVQDTGMYTCMVSNSVGNTTASATLNVTAATTTPFSYFSTVTVETMEPSQDEARTTDNNVGPTPVVDWETTNVTTSLTPQSTRSTEKTFTIPVTDINSGIPGIDEVMKTTKIIIGCFVAITLMAAVMLVIFYKMRKQHHRQNHHAPTRTVEIINVDDEITGDTPMESHLPMPAIEHEHLNHYNSYKSPFNHTTTVNTINSIHSSVHEPLLIRMNSKDNVQETQI
B1 was tested, and the EV clustering [2] was “enables small NetG1 positive (i.e., exomeres)”, the “CAF blebbing (membrane ruffling or protruding)” value ([3]; 3D conditions that enable NetrinG1 expression in CAFs) was “induced CAF blebbing” and the “CAF blebbing in NetG1 KO CAFs” value ([3]; same treatment, NetG1 KO CAFs) was “blebbing was not observed”. For the same molecule, the “clustering of EVs produced by treated CAFs” value [4] was “induced some clustering”, the “number of EVs produced” value [4] was “production of increased numbers of EVs” and the “functional synapses between neurons and fibroblasts (virus spread into CAFs)” value [5] was “prevented”. For the same molecule, the “virus transmission via functional synapses between neurons” value [6] was “limited virus transmission” and the “effectiveness of CAF-produced EVs in rescuing starvation-induced death of PDAC cancer cells” value ([7]; EVs pre-incubated with recombinant NGL1) was “tends to decrease”.

B2: recombinant NetG1: recombinant Netrin G1 protein added to EVs or cell cultures (protein)
chain: HYDLCKTQIYTEEGKVWDYMACQPESTDMTKYLKVKLDPPDITCGDPPETFCAMGNPYMCNNECDASTPELAHPPELMFDFEGRHPSTFWQSATWKEYPKPLQVNITLSWSKTIELTDNIVITFESGRPDQMILEKSLDYGRTWQPYQYYATDCLDAFHMDPKSVKDLSQHTVLEIICTEEYSTGYTTNSKIIHFEIKDRFAFFAGPRLRNMASLYGQLDTTKKLRDFFTVTDLRIRLLRPAVGEIFVDELHLARYFYAISDIKVRGRCKCNLHATVCVYDNSKLTCECEHNTTGPDCGKCKKNYQGRPWSPGSYLPIPKGTANTCIPSISSIGNCECFGHSNRCSYIDLLNTVICVSCKHNTRGQHCELCRLGYFRNASAQLDDENVCIECYCNPLGSIHDRCNGSGFCECKTGTTGPKCDECLPGNSWHYGCQPNVCDNELLHCQNGGTCHNNVRCLCPAAYTGILCEKLRCEEAGSCGS
For B2, the EV clustering [2] was “only clusters exosomes”, the “functional synapses between neurons and fibroblasts (virus spread into CAFs)” value [5] was “prevented” and the “T cell activation (proliferation) by CD3/CD28” value [8] was “activation is prevented”. The “virus transmission via functional synapses between neurons” value [6] was “limited virus transmission” and the “effectiveness of EVs from NetG1 deficient CAFs (NG1KO) in rescuing starvation-induced death of PDAC cancer cells” value ([7]; recombinant NetG1 treatment of KRAS-transformed pancreatic cells) was “improves the effectiveness of EVs”.
